The results in this text go back to the supplement of paper PMC9170038.

This data set has as its system MS2 coat protein. Description: apparent KD of MS2 coat protein; designed switch direction (-1 OFF switch, 1 ON switch): -1; higher = weaker reporter binding. In a few lines:
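SNAP-549-labelled MS2 coat protein was titrated, doubling from 0.7 or 1.5 nM to 3 µM, over designed RNA switches transcribed on Illumina chips by stalled E. coli RNA polymerase. Runs were done without input, with 200 uM small-molecule ligand, or with an oligonucleotide input. Apparent KD is the per-design median over clusters of curve-fitted normalised fluorescence.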

Setting [1] is: Eterna round: R95, input ligand: FMN 200 uM.
Setting [2] is: Eterna round: R95, input ligand: microRNA oligo, concentration not stated.
Where [3] appears, read: Eterna round: R95, input ligand: none.
[4] abbreviates: input ligand: microRNA oligo, concentration not stated.

As for “AAAUUAAGUGUGAGGAUAUGCUGGUCCAUAGAUCAGCAGAAGGCACAUGAGGAUCACCCAUGUAAUAUAUUUAA [Mat - Exclusion 4 - JL Mod - D51] (puzzle: Brourd's mod of Exclusion 4)”, the “apparent KD of MS2 coat protein” value is, setting by setting: under setting [1], 134 nM; under setting [2], 29.4 nM; under setting [3], 23 nM.
For “CAGAUGGGUAACUACACCCACAUGAGGAUCACCCAUGUACACAUAGCUUACGCUCGUCUUAAGCGUGUUUUCGUAGC [Eternabot (L2) Solution 10] (Eterna round: R97, puzzle: Sensor, turn-off variant 1)”, the “apparent KD of MS2 coat protein” value by setting is: (input ligand: FMN 200 uM) 32 nM; (input ligand: none) 33.4 nM.
Turning to “UGAGUGCUGCGAGGAUAUACAUGAGGAUCACCCAUGUGGAUGUCUGAGGCUUUGCCUCAGACAAUGUAGAAGGCGCAGUACUCU [JL ENG2 1.21] (Eterna round: R96, puzzle: Exclusion NG 2)”, the “apparent KD of MS2 coat protein” value by setting is: (input ligand: FMN 200 uM) 96.4 nM; under setting [4], 14.2 nM; (input ligand: none) 21 nM.
Take “AGCUAGAUAGGAUAUGCCCGGGAUAACAUGAGGAUCACCCAUGUGACCGAUUCAUGUCCAGCAGAAGGGUUUGGGA [Mod of ViennaUCT 8 - Jieux - Exclusion 5] (Eterna round: R97, puzzle: Exclusion 5)”: the “apparent KD of MS2 coat protein” value (input ligand: FMN 200 uM) is 17.1 nM and the “apparent KD of MS2 coat protein” value (input ligand: none) was found to be 16.7 nM.
“ACUCCCAUCGUGAGGAUAUUGAAGCGGGAAGCCGGCAAGAAGGUACAUGAGGAUCACCCAUGUGUGAACAGGAC [Eternabot (L1) Solution 48] (Eterna round: R97, puzzle: Brourd's mod of Exclusion 4)”: the “apparent KD of MS2 coat protein” value runs as follows: (input ligand: FMN 200 uM) 14.5 nM; (input ligand: none) 14.9 nM.
Consider “UUAGCGUAUGUAAGGAUAUGCUGGUCUAAUGAUCAGCAGAAGGUACAUGAGGAUCACCCAUGUGUAUUCGUUAU [Mod of JL 7 - Jieux - Brourd's mod of Exclusion 4] (Eterna round: R97, puzzle: Brourd's mod of Exclusion 4)”, for which the “apparent KD of MS2 coat protein” value amounted to 75.9 nM (input ligand: FMN 200 uM) and 18.4 nM (input ligand: none).
In the case of “GAUUAUGCGAGCUUUAGGGACAUGAGGAUCACCCAUGUUCGUCUUAUUAAUCUAGGUACGCUAACAUACCUAAAUCU [JMF 39] (puzzle: Sensor v3, turn-off variant 1)”, the “apparent KD of MS2 coat protein” value by setting is: under setting [1], 20.3 nM; under setting [2], 34.3 nM; under setting [3], 20.6 nM.
Turning to “GUCAGGAAUGUAGGAUAUCUGCACGAUUAGUGCAGAGAAGGACAUGAGGAUCACCCAUGUAUAGUAGCUUCGGCUACACCUGAC [ENG1-A1] (Eterna round: R96, puzzle: Exclusion NG 1)”, the “apparent KD of MS2 coat protein” value (input ligand: FMN 200 uM) was determined as 16.7 nM, the “apparent KD of MS2 coat protein” value under setting [4] was found to be 14 nM and the “apparent KD of MS2 coat protein” value (input ligand: none) worked out at 19.5 nM.
Consider “AAGCGCGUAGGAUAUACAUGAGGAUCACCCAUGUGAGGAAGGAGUAGGAAGUGUGGAAGUAGAAGGACGGAGAG [JR_Exclu3_Sub077] (puzzle: Exclusion 3)”, for which the “apparent KD of MS2 coat protein” value reads like this: under setting [1], 34.4 nM; under setting [2], 31.1 nM; under setting [3], 37.4 nM.
Regarding “GCACGGUUGCUAGGAUAUCCUUGCGAUUAGCAAGGAGAAGGAGCACAUGAGGAUCACCCAUGUACCUCAAUAAUCCAUCCGUGC [Eli exng1 - 029] (Eterna round: R96, puzzle: Exclusion NG 1)”, the “apparent KD of MS2 coat protein” value under setting [4] came to 11 nM.
For the sequence “GAUAGACAUGAGGAUCACCCAUGUGAGGAUAUGCGUACGUUGUCCGUAGGCGACGUGCGCAGAAGGCGCGAGGU [Mat - Mod of JL D93] (puzzle: Exclusion 1)”, the “apparent KD of MS2 coat protein” value under setting [2] turned out to be 42.5 nM.
For “CCAAGAAUAGGAUAUACACCAUGUCAGCUUCUAUACAUCGCACAUGAGGAUCACCCAUGUAGAAGGGUUCUCUC [Exclusion-2-#4] (Eterna round: R97, puzzle: Exclusion 2)”, the “apparent KD of MS2 coat protein” value turned out to be 369 nM (input ligand: FMN 200 uM) and 282 nM (input ligand: none).
For “UCGAUGUAAGGAUAUCGUGCAAGUUUCAAAAGAGGCUUGUGCGAGAAGGUACAUGAGGAUCACCCAUGUAGGUU [Omei Ex4 B7] (Eterna round: R97, puzzle: Exclusion 4)”, in that order: 207 nM and 75.6 nM.
For “AGAUCGAGUGUGAGGAUAUUGACCGGACGACCCAUCGAGAAGGCACAUGAGGAUCACCCAUGUGAUUCGGUUCA [Brourd's EX4 #57] (Eterna round: R97, puzzle: Brourd's mod of Exclusion 4)”, in that order: 27.1 nM and 15.4 nM.
Consider “UUUUUGUCAGGAUAUGAUUAGAUCUACUUUUGUAGAUCUAAUCAGAAGGGACAUGAGGAUCACCCAUGUAGUUU [Ex4 - 3 - 11] (puzzle: Exclusion 4)”, for which the “apparent KD of MS2 coat protein” value under setting [2] stood at 35.7 nM.
As for “CACUGGACAGGAUAUGUUCUUGAGCACUUGAGGAUCACCCAAGUCAUCAAGAACUCAGGCACAGAAGGGUUUAUGG [salish99_ex5_r4_013] (Eterna round: R97, puzzle: Exclusion 5)”, the “apparent KD of MS2 coat protein” value (input ligand: FMN 200 uM) was determined as 38.9 nM and the “apparent KD of MS2 coat protein” value (input ligand: none) came out at 16.9 nM.
On to “UACAUGAGGAUCACCCAUGUUUUGUCGUGUAUGGUAUUUAUCUAGGAUAUCGAUUUAUUUAACCACGAGAAGGAGAGUAUCAAU [MOD Solution 21 by JMF] (Eterna round: R96, puzzle: Exclusion NG 3)”, for which the “apparent KD of MS2 coat protein” value runs as follows: (input ligand: FMN 200 uM) 46.4 nM; under setting [4], 36.8 nM; (input ligand: none) 44.1 nM.
Regarding “GACUUGUCAGGAUAUCUUACAUUUGCAUCGUAGUUACCGUUGGAGAAGGGACAUGAGGAUCACCCAUGUUUGGC [tap-tap-tappy24] (Eterna round: R97, puzzle: Exclusion 4)”, the “apparent KD of MS2 coat protein” value is, setting by setting: (input ligand: FMN 200 uM) 26.6 nM; (input ligand: none) 28.9 nM.
On the same counts, the results for “GCUCGUUUUGUCAGGAUAUUGAGUCAGCUUAAGCUCGAGAAGGGACAUGAGGAUCACCCAUGUACCGCACAAUU [BmEX4 B.29] (Eterna round: R97, puzzle: Brourd's mod of Exclusion 4)” are 16.3 nM and 11.1 nM.
Regarding “UAUAUAUAGUAAGGAUAUGUAAUUAUUUUAUACACAGAAGGUACUGACAUGAGGAUCACCCAUGUUUUAGUGUGGGCAUGUAGA [JMF's solution 51] (Eterna round: R96, puzzle: Exclusion NG 1)”, under setting [4], the “apparent KD of MS2 coat protein” value was 47.1 nM.
“GUUUCGUGAGGAUAUGUGGCUUCGAUCGUGCGAAGAAGGCUACAGAAGGCACAUGAGGAUCACCCAUGUUCGUC [salish99_ex4_r4_227] (Eterna round: R97, puzzle: Exclusion 4)”: the “apparent KD of MS2 coat protein” value reads like this: (input ligand: FMN 200 uM) 152 nM; (input ligand: none) 42.1 nM.
For “AAGAUGUCAGGAUAUUAGUAGUAAAUGAAUAAAAUUAUUACUGAGAAGGGACAUGAGGAUCACCCAUGUGUCUU [Mat - Exclusion 4 - Eli Mod - D11] (Eterna round: R97, puzzle: Exclusion 4)”, in that order: 80.2 nM and 19.8 nM.
As to “CGUCAGUGAGGAUAUGGUAACGUUUACAUGAGGAUCACCCAUGUUUCAUGGGACUAGAGACUAGAAGGUACUGACG [EX5 #42] (Eterna round: R97, puzzle: Exclusion 5)”, the “apparent KD of MS2 coat protein” value came out at 189 nM (input ligand: FMN 200 uM) and 132 nM (input ligand: none).
Take “CAGUACUGAGGAUAUACAUGAGGAUCACCCAUGUGUUCCAGCUAGGGAACUAGCAAAAGUAGAAGGCAGUACUG [salish99_ex3_r3_075] (puzzle: Exclusion 3)”: the “apparent KD of MS2 coat protein” value under setting [2] stood at 23.1 nM.
“GUUCAACAUGAGGAUCACCCAUGUCAGGAUAUGCGAAUUUCAUCAAAAGAUGAAAUUUGCAGAAGGGACUGAAC [Omei Ex1 A30] (Eterna round: R97, puzzle: Exclusion 1)”: the “apparent KD of MS2 coat protein” value is, setting by setting: (input ligand: FMN 200 uM) 30.5 nM; (input ligand: none) 27.2 nM.
Regarding “ACAUGAGGAUCACCCAUGUAAACAUGAUGGCUGAUGUAGAGCUAGGAUAUGAGUGACUAUCUAUCUCAGAAGGAGCUUGACUGG [Deportation 45 - Jieux - Exclusion NG 3] (Eterna round: R96, puzzle: Exclusion NG 3)”, the “apparent KD of MS2 coat protein” value came to 26 nM (input ligand: FMN 200 uM), 27.1 nM under setting [4] and 31.4 nM (input ligand: none).
Regarding “GCAAGCUUUUGCUCGCCUUACAUGAGGAUCACCCAUGUGGGCCCGGGCCCGGGCCCGCCGGGCCCGGGCCCGGGCCC [-59.4, -80.7 kcal, A 10%] (Eterna round: R97, puzzle: Sensor, turn-off variant 1)”, the “apparent KD of MS2 coat protein” value (input ligand: FMN 200 uM) turned out to be 26.5 nM and the “apparent KD of MS2 coat protein” value (input ligand: none) turned out to be 32.2 nM.
With “CUGUGCAUAGGAUAUGAAAGAAGAAACAUGAGGAUCACCCAUGUAGCCUCAAAUCUUAUGUCAGAAGGAUGCGUUA [Default title] (Eterna round: R97, puzzle: Exclusion 5)”, the “apparent KD of MS2 coat protein” value runs as follows: (input ligand: FMN 200 uM) 15.9 nM; (input ligand: none) 13.6 nM.
For “UCCAGGCGAGGAUAUACAAAGAUUUUUUCGUUUUGUCUCGAACAUGAGGAUCACCCAUGUAGAAGGUGCUUCUG [JR_Ex2_Sub012] (Eterna round: R97, puzzle: Exclusion 2)”, the “apparent KD of MS2 coat protein” value (input ligand: FMN 200 uM) was 149 nM and the “apparent KD of MS2 coat protein” value (input ligand: none) worked out at 115 nM.
Take “AUUAAUGUCAAAGGAUAUCAGCACGUUUAGUGCUGAGAAGGUUGAACAUGAGGAUCACCCAUGUAGAUCAUUAAUAAUUUAAUU [ENG1/10-B1] (Eterna round: R96, puzzle: Exclusion NG 1)”: the “apparent KD of MS2 coat protein” value was 23.5 nM (input ligand: FMN 200 uM), 18.9 nM under setting [4] and 18.2 nM (input ligand: none).
On to “UUAAAUCAUGUAGGAUAUGCUUUGCGAAGCGAGGCAGAAGGACAUGAGGAUCACCCAUGUGCUAGCGUCCGAGAACGGAUGCAA [Mat - Exclusion NG 1 - Mod of JL - D63] (Eterna round: R96, puzzle: Exclusion NG 1)”, for which the “apparent KD of MS2 coat protein” value (input ligand: FMN 200 uM) came out at 149 nM, the “apparent KD of MS2 coat protein” value under setting [4] was 51.8 nM and the “apparent KD of MS2 coat protein” value (input ligand: none) came to 79.6 nM.
